Measured values from paper PMC3894413.

Target: BCL-XL (UniProt Q07817)
Assay: SPR

UniProt Q07817, sequence (Q07817 whole entry): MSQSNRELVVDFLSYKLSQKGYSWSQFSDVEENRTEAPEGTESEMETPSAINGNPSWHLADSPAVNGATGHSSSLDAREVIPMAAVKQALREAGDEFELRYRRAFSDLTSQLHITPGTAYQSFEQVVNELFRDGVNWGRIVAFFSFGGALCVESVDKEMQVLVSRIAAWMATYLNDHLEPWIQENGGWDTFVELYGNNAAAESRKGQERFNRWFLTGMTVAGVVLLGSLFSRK

fold higher affinity than BIMS2A BH3 for MCL-1: 20 fold
Binder: NLWAAQRYGRELRRMSDEFVDSFKKG [BADS BH3 peptide]
